The target in assay [1] is T1, SARS-CoV-2 prefusion-stabilized trimeric spike ectodomain (S2Pecto) (SARS-CoV-2, UniProt P0DTC2 14-1213; P10104 458-484). Description: hACE2 blocking ELISA on coated S2Pecto; competitor hACE2.
The target of assay [2] is T1, SARS-CoV-2 prefusion-stabilized …. Description: ELISA on coated antigen.
In assay [3] the target is SARS-CoV-2 Spike trimer (Table A) (SARS-CoV-2, UniProt P0DTC2 14-1208). Put plainly: ELISA, purified IgG.

B1: COV2-3025 (antibody, V domains shown)
VH: EVQLVQSGPEVKKPGTSVKVSCKASGFTFMSSAVQWVRQARGQRLEWIGWIVIGSGNTNYAQKFQERVTITRDMSTSTAYMELSSLRSEDTAVYYCAAPYCSSISCNDGFDIWGQGTMVTVSS
VL: EIVLTQSPGTLSLSPGERVTLSCRASQSVSSSYLAWYQQKPGQAPRLLIYGASSRATGIPDRFSGSGSGTDFTLTISRLEPEDFAVYYCQHYGSSRGWTFGQGTKVEIK
In assay [1], B1 yielded an IC50 of 0.041 µg/mL. In assay [2], the EC50 was found to be 0.0011 µg/mL. In addition, in assay [3], the “ELISA OD 450 nm” value was found to be 3.7 OD 450 nm.

B2: COV2-2514 (antibody, V domains shown)
VH: EVQLVESGGGVVRPGGSLRLSCAASGFIFDDYDMTWVRQAPGKGLEWVSGINWNGGSTGYADSVKGRFTISRDNAKNSLYLQMNSLRAEDTALYHCAVIMSPIPRYSGYDWAGDAFDIWGQGTMVTVSS
VL: SSELTQDPAVSVALGQTVRITCQGDSLRSYYASWYQQKPGQVPILVIYDKNNRPSGIPDRFSGSSSGNTASLTITGAQAEDEADYYCNSRDSSGNAVVFGGGTKLTVL
Consider B2, for which the “ELISA OD 450 nm” value in assay [3] is 3.56 OD 450 nm.

B3: COV2-2094 (antibody, V domains shown)
VH: B2 VH
VL: B2 VL
On to B3, for which the IC50 in assay [1] was determined as 0.053 µg/mL. This molecule also registered an EC50 in assay [2] of 0.0018 µg/mL. In assay [3], the “ELISA OD 450 nm” value amounted to 4.3 OD 450 nm.

These data come from US20210300999A1 (VANDERBILT UNIVERSITY, published 2021).
